The data set concerns the molecule itself. The data set is described as follows: crystal structure; native hTP without ligand, space group P2(1), 0.1 M Na-acetate pH 5.2, 25% PEG 4000, 0.1 M ammonium acetate; 3.0 Å; four chains in the asymmetric unit.

B1: Human thymidine phosphorylase (enzyme)
chain: APPAPGDFSGEGSQGLPDPSPEPKQLPELIRMKRDGGRLSEADIRGFVAAVVNGSAQGAQIGAMLMAIRLRGMDLEETSVLTQALAQSGQQLEWPEAWRQQLVDKHSTGGVGDKVSLVLAPALAACGCKVPMISGRGLGHTGGTLDKLESIPGFNVIQSPEQMQVLLDQAGCCIVGQSEQLVPADGILYAARDVTATVDSLPLITASILSKKLVEGLSALVVDVKFGGAAVFPNQEQARELAKTLVGVGASLGLRVAAALTAMDKPLGRCVGHALEVEEALLCMDGAGPPDLRDLVTTLGGALLWLSGHAGTQAQGAARVAAALDDGSALGRFERMLAAQGVDPGLARALCSGSPAERRQLLPRAREQEELLAPADGTVELVRALPLALVLHELGAGRSRAGEPLRLGVGAELLVDVGQRLRRGTPWLRVHRDGPALSGPQSRALQEALVLSDRAPFAAPSPFAELVLPPQQ
notes: Human thymidine phosphorylase (hTP, EC 2.4.2.4), cDNA clone from the Mammalian Gene Collection; residues 32-480 are seen in the crystals; Homodimer; the His tag is surmised from the Ni2+ column; Native crystal: residues 34-479 in all four copies (32, 33 and 480 in some chains); complex with 5-iodouracil: residues 35-480 in both chains; also called hTP; TP; source: E. coli …
With B1, the “stoichiometry N” value was 2.

The values above are taken from paper PMC2719695, “Structures of native human thymidine phosphorylase and in complex with 5-iodouracil” (Biochemical and Biophysical Research Communications, 2009).
